Experimental data published in US20160200782A1 (MOERAE MATRIX, published 2016).

T1: EphA4(h) (human, UniProt P54764 570-986, limits assumed)
T1 sequence (looked up): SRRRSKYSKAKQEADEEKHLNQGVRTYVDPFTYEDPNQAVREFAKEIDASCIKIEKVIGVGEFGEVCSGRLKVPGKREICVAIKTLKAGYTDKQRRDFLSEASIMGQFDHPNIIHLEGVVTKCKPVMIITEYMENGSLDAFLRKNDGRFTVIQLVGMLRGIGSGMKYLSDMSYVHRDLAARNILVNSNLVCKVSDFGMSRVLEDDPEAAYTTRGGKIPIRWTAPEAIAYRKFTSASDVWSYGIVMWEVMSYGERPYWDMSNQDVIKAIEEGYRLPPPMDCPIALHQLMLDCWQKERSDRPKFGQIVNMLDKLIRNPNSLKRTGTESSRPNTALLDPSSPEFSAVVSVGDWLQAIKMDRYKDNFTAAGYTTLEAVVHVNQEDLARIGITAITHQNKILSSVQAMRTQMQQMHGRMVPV

T2: DDR2(h) (human, UniProt Q16832 422-855, limits assumed)
T2 sequence (looked up): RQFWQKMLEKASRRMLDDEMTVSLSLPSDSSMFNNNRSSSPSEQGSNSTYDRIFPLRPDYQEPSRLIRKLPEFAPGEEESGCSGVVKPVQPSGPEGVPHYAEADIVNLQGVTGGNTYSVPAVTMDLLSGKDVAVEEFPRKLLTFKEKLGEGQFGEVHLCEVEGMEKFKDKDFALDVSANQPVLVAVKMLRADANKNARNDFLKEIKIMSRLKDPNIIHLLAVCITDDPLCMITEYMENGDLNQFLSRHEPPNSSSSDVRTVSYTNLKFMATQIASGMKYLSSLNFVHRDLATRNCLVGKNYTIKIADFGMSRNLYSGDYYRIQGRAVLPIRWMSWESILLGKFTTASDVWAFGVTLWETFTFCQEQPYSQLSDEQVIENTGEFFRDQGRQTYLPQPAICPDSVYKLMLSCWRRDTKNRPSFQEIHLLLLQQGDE

T3: DRAK1(h) (human, UniProt Q9UEE5 1-414, limits assumed)
T3 sequence (looked up): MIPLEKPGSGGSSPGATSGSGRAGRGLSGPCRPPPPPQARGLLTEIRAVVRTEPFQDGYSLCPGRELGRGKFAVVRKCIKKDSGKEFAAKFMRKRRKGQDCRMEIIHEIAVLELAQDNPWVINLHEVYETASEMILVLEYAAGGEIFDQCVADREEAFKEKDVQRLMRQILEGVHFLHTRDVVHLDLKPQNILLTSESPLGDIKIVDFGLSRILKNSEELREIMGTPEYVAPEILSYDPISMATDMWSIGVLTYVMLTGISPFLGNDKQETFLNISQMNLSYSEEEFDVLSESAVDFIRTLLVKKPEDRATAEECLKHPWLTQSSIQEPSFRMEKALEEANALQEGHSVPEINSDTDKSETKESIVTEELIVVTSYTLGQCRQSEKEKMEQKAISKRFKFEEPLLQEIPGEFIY

T4: IRAK4(h) (human, UniProt Q9NWZ3 1-460, limits assumed)
T4 sequence (looked up): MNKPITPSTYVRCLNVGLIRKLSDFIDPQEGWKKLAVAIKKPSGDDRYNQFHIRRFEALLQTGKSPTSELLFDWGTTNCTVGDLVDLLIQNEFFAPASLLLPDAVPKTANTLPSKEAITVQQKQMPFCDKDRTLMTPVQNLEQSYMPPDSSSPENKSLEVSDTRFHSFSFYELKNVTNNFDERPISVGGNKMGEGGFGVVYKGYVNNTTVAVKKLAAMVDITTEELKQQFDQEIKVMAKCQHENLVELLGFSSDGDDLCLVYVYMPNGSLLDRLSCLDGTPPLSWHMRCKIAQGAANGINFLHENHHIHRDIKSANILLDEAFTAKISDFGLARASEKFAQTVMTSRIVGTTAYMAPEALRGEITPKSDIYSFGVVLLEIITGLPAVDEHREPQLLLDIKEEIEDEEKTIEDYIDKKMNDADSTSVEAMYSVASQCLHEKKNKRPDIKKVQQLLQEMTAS


Experiments:
Experiment in all cases: cell-based or functional assay
FGFR3(h) = FGFR3(h) (human, UniProt P22607 397-806)
CDK9/cyclin T1(h) = CDK9/cyclin T1(h) (human, UniProt P50750 1-372; O60563 1-726, limits assumed)
Sequence of CDK9/cyclin T1(h) (P50750 whole entry, chain 1 of 2): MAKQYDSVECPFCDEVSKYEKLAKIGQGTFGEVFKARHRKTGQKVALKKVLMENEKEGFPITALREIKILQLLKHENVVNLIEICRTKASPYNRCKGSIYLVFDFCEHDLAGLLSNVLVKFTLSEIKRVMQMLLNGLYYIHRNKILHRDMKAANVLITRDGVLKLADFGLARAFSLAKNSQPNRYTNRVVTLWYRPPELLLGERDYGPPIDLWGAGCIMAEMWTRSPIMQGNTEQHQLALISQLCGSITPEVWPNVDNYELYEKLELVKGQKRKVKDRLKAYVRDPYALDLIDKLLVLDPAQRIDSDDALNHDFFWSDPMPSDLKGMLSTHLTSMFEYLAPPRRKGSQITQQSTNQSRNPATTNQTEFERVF
Sequence of CDK9/cyclin T1(h) (O60563 whole entry, chain 2 of 2): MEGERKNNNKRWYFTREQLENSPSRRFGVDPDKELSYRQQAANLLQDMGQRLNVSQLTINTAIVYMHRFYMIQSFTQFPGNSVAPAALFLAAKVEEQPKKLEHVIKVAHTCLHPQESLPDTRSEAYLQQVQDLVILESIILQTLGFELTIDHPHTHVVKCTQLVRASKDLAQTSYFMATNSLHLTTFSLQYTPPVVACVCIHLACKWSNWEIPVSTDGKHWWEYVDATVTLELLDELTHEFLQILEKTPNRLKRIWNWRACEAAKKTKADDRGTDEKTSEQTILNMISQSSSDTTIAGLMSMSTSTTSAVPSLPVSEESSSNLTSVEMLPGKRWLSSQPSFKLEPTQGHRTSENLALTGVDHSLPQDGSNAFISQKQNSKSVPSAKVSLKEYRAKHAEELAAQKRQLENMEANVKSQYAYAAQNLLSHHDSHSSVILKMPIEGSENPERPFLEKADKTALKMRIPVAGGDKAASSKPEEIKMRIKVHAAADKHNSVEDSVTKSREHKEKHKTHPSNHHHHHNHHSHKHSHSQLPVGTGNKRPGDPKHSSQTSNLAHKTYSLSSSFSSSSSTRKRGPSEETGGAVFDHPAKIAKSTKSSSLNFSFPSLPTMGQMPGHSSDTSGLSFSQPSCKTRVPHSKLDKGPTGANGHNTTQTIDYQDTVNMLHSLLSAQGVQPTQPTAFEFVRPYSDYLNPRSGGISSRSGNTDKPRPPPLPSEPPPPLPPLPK

EphA4(h) = molecular target: T1, EphA4(h)
CDK2/cyclinE(h) = CDK2/cyclinE(h) (human, UniProt P24941 1-298; P24941 1-298)
ASK1(h) = ASK1(h) (human, UniProt Q99683 649-946, limits assumed)
Sequence of ASK1(h) (Q99683 649-946 limits assumed): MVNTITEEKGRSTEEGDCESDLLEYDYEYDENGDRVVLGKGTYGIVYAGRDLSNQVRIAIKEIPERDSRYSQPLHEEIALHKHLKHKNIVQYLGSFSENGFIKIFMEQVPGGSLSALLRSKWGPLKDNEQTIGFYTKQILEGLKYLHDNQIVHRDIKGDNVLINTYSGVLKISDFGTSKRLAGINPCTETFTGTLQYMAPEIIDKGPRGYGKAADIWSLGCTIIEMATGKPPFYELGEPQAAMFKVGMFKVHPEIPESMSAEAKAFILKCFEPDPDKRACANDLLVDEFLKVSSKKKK

Arg(h) = Arg(h) (human, UniProt P42684 38-1182, limits assumed)
DDR2(h) = molecular target: T2, DDR2(h)
PDGFRβ(h) = PDGFRβ(h) (human, UniProt P09619 557-1106, limits assumed)
Sequence of PDGFRβ(h) (P09619 557-1106 limits assumed): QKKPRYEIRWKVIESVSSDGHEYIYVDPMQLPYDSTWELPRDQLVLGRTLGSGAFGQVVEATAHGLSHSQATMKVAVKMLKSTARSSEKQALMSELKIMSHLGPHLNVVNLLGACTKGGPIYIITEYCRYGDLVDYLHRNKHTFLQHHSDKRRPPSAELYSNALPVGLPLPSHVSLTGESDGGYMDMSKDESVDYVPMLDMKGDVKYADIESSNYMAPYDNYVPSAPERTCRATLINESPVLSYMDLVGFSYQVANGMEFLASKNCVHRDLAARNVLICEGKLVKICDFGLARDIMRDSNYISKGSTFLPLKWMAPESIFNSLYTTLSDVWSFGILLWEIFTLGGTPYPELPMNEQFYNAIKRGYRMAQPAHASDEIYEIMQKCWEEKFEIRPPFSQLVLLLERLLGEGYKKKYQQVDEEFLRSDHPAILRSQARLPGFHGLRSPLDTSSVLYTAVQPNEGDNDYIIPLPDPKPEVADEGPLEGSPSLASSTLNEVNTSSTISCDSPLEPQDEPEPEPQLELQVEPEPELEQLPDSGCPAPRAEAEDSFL

DRAK1(h) = molecular target: T3, DRAK1(h)
CDK5/p25(h) = CDK5/p25(h) (human, UniProt Q00535 1-292; Q15078 99-307)
PTK5(h) = PTK5(h) (human, UniProt P42685 1-505, limits assumed)
Sequence of PTK5(h) (P42685 whole entry): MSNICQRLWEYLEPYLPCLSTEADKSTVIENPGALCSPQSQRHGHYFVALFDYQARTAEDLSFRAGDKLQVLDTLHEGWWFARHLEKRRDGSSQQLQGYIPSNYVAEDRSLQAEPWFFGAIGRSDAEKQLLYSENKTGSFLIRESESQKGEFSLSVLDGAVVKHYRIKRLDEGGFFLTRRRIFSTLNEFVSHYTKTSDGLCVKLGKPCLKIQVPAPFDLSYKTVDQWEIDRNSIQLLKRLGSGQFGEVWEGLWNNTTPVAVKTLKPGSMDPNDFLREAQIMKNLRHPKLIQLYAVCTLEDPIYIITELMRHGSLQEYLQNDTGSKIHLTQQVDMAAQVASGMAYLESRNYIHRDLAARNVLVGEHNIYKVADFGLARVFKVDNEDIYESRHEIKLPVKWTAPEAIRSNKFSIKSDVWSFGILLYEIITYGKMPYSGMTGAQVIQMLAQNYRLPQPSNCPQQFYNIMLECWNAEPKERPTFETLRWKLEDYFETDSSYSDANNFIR

Met(h) = Met(h) (human, UniProt P08581 956-1390, limits assumed)
Sequence of Met(h) (P08581 956-1390 limits assumed): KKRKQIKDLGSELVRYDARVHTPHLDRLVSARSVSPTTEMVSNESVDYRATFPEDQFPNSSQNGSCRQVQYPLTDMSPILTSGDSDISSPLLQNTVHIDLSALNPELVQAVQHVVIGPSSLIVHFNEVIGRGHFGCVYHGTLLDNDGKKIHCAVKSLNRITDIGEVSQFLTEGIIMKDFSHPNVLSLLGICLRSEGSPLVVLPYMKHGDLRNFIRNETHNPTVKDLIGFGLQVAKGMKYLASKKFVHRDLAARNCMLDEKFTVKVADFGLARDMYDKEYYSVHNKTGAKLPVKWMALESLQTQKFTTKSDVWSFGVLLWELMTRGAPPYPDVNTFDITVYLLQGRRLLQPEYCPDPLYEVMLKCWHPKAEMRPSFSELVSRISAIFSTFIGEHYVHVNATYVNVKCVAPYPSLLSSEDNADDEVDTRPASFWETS

Ab1(T315I)(h) = Ab1(T315I)(h) (human, UniProt P00519 27-1130, limits assumed)
Sequence of Ab1(T315I)(h) (P00519 27-1130 T315I limits assumed): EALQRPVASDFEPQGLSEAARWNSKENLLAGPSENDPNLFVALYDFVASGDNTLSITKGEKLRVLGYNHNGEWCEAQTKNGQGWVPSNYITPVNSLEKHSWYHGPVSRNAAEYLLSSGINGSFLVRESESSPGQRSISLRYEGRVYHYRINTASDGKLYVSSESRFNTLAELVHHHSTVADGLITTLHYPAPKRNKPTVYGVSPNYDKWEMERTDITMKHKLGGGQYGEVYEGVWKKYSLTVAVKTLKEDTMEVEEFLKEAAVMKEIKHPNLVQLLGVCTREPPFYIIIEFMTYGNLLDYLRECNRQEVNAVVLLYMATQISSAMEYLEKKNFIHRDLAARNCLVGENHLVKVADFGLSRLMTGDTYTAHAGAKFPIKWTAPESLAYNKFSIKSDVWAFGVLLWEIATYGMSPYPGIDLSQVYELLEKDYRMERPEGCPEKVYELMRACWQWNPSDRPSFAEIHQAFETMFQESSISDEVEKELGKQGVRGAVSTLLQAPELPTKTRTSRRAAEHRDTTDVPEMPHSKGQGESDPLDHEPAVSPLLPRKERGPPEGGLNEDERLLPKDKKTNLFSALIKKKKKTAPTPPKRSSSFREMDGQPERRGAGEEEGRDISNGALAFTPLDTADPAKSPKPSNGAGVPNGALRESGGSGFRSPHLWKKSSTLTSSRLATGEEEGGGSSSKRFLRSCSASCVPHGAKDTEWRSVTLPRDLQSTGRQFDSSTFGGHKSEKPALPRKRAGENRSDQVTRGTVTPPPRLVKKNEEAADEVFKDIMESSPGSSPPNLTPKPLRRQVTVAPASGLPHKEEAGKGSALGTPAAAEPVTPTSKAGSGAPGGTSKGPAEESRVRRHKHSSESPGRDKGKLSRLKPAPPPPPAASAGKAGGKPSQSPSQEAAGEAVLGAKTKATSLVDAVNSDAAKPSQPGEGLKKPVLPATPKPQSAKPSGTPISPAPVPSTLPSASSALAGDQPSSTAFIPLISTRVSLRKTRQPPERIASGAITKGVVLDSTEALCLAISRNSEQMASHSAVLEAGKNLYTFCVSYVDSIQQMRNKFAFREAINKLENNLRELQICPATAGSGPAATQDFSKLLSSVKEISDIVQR

IR(h) = IR(h) (human, UniProt P06213 1005-1310, limits assumed)
Sequence of IR(h) (P06213 1005-1310 limits assumed): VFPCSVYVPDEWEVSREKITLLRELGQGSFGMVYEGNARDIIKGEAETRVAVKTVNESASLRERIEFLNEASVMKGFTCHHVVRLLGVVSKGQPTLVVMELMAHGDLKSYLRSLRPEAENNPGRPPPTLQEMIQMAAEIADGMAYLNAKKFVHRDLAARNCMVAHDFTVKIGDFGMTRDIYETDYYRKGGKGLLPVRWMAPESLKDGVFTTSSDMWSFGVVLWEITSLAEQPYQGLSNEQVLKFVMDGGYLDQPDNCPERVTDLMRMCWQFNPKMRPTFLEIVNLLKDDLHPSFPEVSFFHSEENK

Plk3(h) = Plk3(h) (human, UniProt Q9H4B4 1-646, limits assumed)
Sequence of Plk3(h) (Q9H4B4 whole entry): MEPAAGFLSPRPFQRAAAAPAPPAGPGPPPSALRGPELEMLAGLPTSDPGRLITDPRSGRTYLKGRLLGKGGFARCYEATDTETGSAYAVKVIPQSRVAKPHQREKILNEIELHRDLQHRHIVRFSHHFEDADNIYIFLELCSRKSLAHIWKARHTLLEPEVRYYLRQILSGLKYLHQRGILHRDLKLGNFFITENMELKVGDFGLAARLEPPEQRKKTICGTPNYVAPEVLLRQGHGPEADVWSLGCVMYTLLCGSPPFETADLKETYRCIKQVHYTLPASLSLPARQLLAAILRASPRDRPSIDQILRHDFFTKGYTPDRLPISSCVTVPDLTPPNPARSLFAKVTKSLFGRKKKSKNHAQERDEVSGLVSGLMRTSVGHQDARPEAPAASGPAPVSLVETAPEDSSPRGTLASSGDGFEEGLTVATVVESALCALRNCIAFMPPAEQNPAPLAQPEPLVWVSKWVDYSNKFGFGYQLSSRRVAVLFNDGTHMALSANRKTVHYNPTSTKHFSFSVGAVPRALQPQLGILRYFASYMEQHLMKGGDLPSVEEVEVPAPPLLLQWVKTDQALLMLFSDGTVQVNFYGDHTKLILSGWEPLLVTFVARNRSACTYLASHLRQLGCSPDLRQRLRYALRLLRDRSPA

IRAK4(h) = molecular target: T4, IRAK4(h)
HIPK3(h) = HIPK3(h) (human, UniProt Q9H422 161-562, limits assumed)

Row | % activity (FGFR3(h)) | % activity (CDK9/cyclin T1(h)) | % activity (EphA4(h)) | % activity (CDK2/cyclinE(h)) | % activity (ASK1(h)) | % activity (Arg(h)) | % activity (DDR2(h)) | % activity (PDGFRβ(h)) | % activity (DRAK1(h)) | % activity (CDK5/p25(h)) | % activity (PTK5(h)) | % activity (Met(h)) | % activity (Ab1(T315I)(h)) | % activity (IR(h)) | % activity (Plk3(h)) | % activity (IRAK4(h)) | % activity (HIPK3(h)) | Binder
1 | 102% | 91% | 88% | 94% | 80% | 72% | 94% | 81% | 14% | 89% | 132% | 65% | 97% | 96% | 127% | 59% | 93% | FAKLAARLYRKALARQLGVAA [MMI-0300]
2 | 0% | 235% | 65% | 83% | 69% | 84% | 95% | 53% | 14% | 92% | 129% | 62% | 105% | 85% | 129% | 59% | 105% | KAFAKLAARLYRKALARQLGVAA [MMI-0400]
